# Experimental data as given in patent US20090297504A1 (published 2009).
# Where no end group is shown, it is not given here.
# Columns and labels:
# [1] = biological target: Murine APRIL (K104-L241) thioredoxin fusion protein (murine) (UniProt Q9D777); test: SPR (BIAcore 3000), APRIL immobilized, receptor as analyte, 1:1 model
# [2] = biological target: T1, Human BAFF (residues 82-285) (human, UniProt Q9Y275 82-285); test: competition ELISA; immobilized BAFF, biotinylated miniBR3 tracer (FIG. 7)
# T1 construct: also called BAFF82-285
# T1 sequence (Q9Y275 82-285): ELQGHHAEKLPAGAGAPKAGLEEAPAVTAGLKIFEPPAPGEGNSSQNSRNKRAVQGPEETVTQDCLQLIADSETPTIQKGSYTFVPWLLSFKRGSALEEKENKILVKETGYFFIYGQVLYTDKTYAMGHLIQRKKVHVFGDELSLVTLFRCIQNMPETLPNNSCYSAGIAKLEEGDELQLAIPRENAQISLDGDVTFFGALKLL
# Protocol: The plate was washed with PBS and blocked for 1 hr with 200 μl of 0.2% BSA in PBS at room temperature. […] The plate was washed with PBS/Tween-20 and incubated with 100 μl/well of 0.1 U/ml Streptavidin-POD (Boehringer Mannheim) for 15 minutes at room temperature. After washing the plate with PBS/0.05% Tween-20 followed by a final wash in PBS, the plate was incubated for 5 min with 100 μl/well PBS substrate solution containing 0.8 mg/ml OPD (Sigma) and 0.01% H₂O₂.
# [3] = biological target: T1, Human BAFF (residues 82-285); test: SPR (BIAcore 3000), BAFF immobilized, receptor as analyte
# Protocol: Measurement of binding constants for receptors to ligands. […] CM5 chips from BIAcore were docked according to manufacturer instructions. Then, BIAcore system was primed with 0.2 μm filtered buffer containing 10 mM Hepes pH 7.2, 150 mM NaCl, 0.005% Tween20. After buffer priming, the flow cells were normalized with 70% glycerol. Each flow cell surface was activated individually in preparation for linkage of the ligand to the chip with a 1:1 mixture of EDC(N-ethyl-N′-(3-dimethyl aminopropyl)-carbodiimide hydrochloride) and NHS(N-hydroxysuccinimide). […] Generally, the ligand to be immobilized (30 μg/ml in 10 mM NaOAc, pH 5 buffer) was injected into the system at 40 μl/min. Once approximately 400 RU was generated, the flow cell was blocked with ethanolamine. […] The system was then primed again.
# The ligand-receptor complex was allowed to dissociate by washing the flow cell at 30 μl/min for 600 seconds. Alternatively, if several binding measurements over the same flow cell were to be performed, the ligand-receptor complex was allowed to dissociate by washing the flow cell at 30 μl/min for 900 seconds. Sensorgrams were recorded for each binding assay. A 1:1 Langmuir binding equation was used to simultaneously fit the association and dissociation rates of the ligand-analyte interactions. kₐ, kd, KD were calculated using curve fit analysis software provided with the BiaCore instrument
# Murine APRIL (K104-L241) thioredoxin fusion protein (murine), sequence (Q9D777 104-241, form in doubt): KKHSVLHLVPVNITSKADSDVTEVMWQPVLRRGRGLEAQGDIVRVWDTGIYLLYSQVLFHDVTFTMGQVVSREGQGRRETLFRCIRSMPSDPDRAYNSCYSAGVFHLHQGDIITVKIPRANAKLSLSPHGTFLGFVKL
Binder,koff [1] [s⁻¹],IC50 [2] [nM],binding result [3]
"AGQCSQNEYFDSLLHACIPCQLRCSSNTPPLTCQRYCNASVTNSVKG (Fc fusion, not shown: a dimerising Fc or GST, also called wt BCMA-Fc; BCMA-Fc wt) [BCMA-Fc (BCMA(wt)-Fc immunoadhesin)]",0.0001,7 to 10,–
"MAGQCSQNEYFDSLLHACIPCQLRCSSNTPPLTCQRYCNASVTNSVKGTN (receptor, not shown: small tags and cut ends, not fully specified (N-terminus); ends and bridges not checked; also: mixture of glycosylated and non-glycosylated species, also called BCMA(baculovirus); baculovirus BCMA) [BCMA ECD from baculovirus expression (human BCMA residues 4-53, His-tagged)]",–,–,no binding (tested: analyte 6.25 nM to 200 nM)
